Assay results reported in the DeepSol protein solubility set.

Test: soluble on expression in E. coli; label from the status in PepcDB or PDB records

Row | Sequence | soluble on expression in E. coli
1 | MGHHHHHHSHMNKHQKPVLTGQRFKTRKRDEKEKFEPTVFRDTLVQGLNEAGDDLEAVAKFLDSTGSRLDYRRYADTLFDILVAGSMLAPGGTRIDDGDKTKMTNHCVFSANEDHETIRNYAQVFNKLIRRYKYLEKAFEDEMKKLLLFLKAFSETEQTKLAMLSGILLGNGTLPATILTSLFTDSLVKEGNEAPVFSPVRQQKKNKVTDS | not soluble
2 | MGHHHHHHSHMPADRSIWQESCPVSFSALKKWIFLPNSTKIKEKRSSFPVRGPLTFDGWYPRDHKPSAPPTNEEERRAAAVKYGLRPEDYQSMDKDDVIKFAGDYPDLGVITYDHKDPYEAWTDRQNRRNWGELVPIDMMRYRGDRLTFTGLEAEDYTTWNSIVMCLRVLVPMALLAWYFTNEHPNALRWKNPAMPKQYSYDFYRAYPFDDPRKYPIVNYSFDLE | not soluble
3 | MGHHHHHHSHMPPYPANSVFCKDKVSLCCQVGPDFLGSSAPFSASHSAGITGMSHYAQPVFCSLNKGRTVW | not soluble
4 | MGHHHHHHSHMRCQESMSAVLTAEQALKLVGEMFVYHMPFNRALGLELERYEKAFAQLAFNNQPMMVGNWAQSILHGGVIASALDVAAGLVCVGSTLTRHETISEDELRQRLSRMGTIDLRVDYLRPGRGNRFTATSSLLRAGNKVAVARVELHNEDQLYIASATATYMVG | not soluble
5 | MGHHHHHHSHMRKLTALFVASTLAMGAANLAHAAETTTAAPADAKPMMQHKGKFGPHHDMMFKNLNLTDAQKQQIRDIMKAQREQMKRPLLEERRAMHDIIASDTFDKAKAEAQITKMEAQRKANMLAHMETQNKIYNVLTPEQKKQYNANFEKRLTERPAQEGKMPAAAE | soluble
6 | MGHHHHHHSHMRKTLIALMFATALPAIAMAAPPAPPAGAPDADAPGMHMQRGDRGPGMHRGPGPLKELDLTREQRQQIDRLMREQMHERREITQNYLEKMPAADQKAMRDEIEAKRSKTDSEVRALLKPDQQKQFDEIKKKEDERRAEWAEFKAWKAAKTAKAQ | soluble
7 | MGHHHHHHSHMSERSVSKRTEQKRWYTVQAPEQFDREVLGKTPAEEPDKVLGRTIETTLGELTNDASENNTKLTFKINEVASDSAYTEFIRHELTRDYLRSLVRRGSSKVEAYITVLTTDDYRVQIQPVAVTTKKADASQEKAIRRTMIDLVRETAEDHTFEQLIDSVVEGRLSSAIYGEAKDIYPLRRVEIKKTTLEARPEEVAAEEETAVDVDEEDVDVEA | soluble
8 | MGHHHHHHSHMSHIFDASVLAPHIPSNLPDNFKVRPLAKDDFSKGYVDLLSQLTSVGNLDQEAFEKRFEAMRTSVPNYHIVVIEDSNSQKVVASASLVVEMKFIHGAGSRGRVEDVVVDTEMRRQKLGAVLLKTLVSLGKSLGVYKISLECVPELLPFYSQFGFQDDCNFMTQRF | not soluble
9 | MGHHHHHHSHMSVHKLTDLRDNSTNWKINVKILSIWNHPPNSHGEITTMILHDDKNNRVDATIPQGNYHNPFCPFLKPGTWIHISDFRVVVPQSRVRYSSFRFHIKFIWETSVHPLPELVKRDFFD | not soluble
10 | MGHHHHHHSHMSWLKEVIGTEKAVIAMCHLRALPGDPGFDTRKGMNWVIDRAHDDLMALQNGGVDAVMFSNEFSLPYLTKVRPETTAAMARIIGQLMSEIRVPFGVNVLWDPVASFDLAMATDAKFIREIFTGAYASDFGVWDTNVGETIRHQHRIGAGHVKTLFNIVPEAAVYLGNRDVCSIAKSTVFNNNPDALCVSGLTAGARTDSAILKRVKETVPDTVVLANTGVCLENVEEQLCIADGCVTATTFKKDGVFANFVDQARVAKFMEKVRHIRQ | soluble
11 | MGHHHHHHSHNTTKPKSLAVKKAKWHLGIRSQSKPYDIMAEVYRAMKQLDFEWKVVNAYHLRVRRKNPVTGNYVKMSLQLYLVDNRSYLLDFKSIDDEVVEQRSGS | not soluble
12 | MGHHHHHHSHQETQLSSKVVQKLVLPFGRLNYLPLEQQFMPCLERILAREAGVAPLATVNILMSLCQLRCLPFRALHFVFSPGFINYISGTPHALIVRRYLSLLDTAVELELPGYRGPRLPRRQQVPIFPQPLITDRARCKYSHKDIVAEGLRQLLGEEKYRQDLTVPPGYCTDFLLCASSSGAVLPVRTQDPFLP | not soluble
13 | MGHHHHHHSHSSVTIGRFQSVRYDVNLEKAKELGIPVVRRITGGGSVFHDEYGEITYSVVISEDYHPMLKNIQDSYRFLAGPLVDALKDLGIEAEFSGLNDIVVRGKKISGSAQTRRRGIILQHGTLMYATRLEI | not soluble
14 | MGHHHHHHSHTVCSLSSGKFGTLLSGSWDTTAKVWLNDKCMMTLQGHTAAVWAVKILPEQGLMLTGSADKTVKLWKAGRCERTFSGHEDCVRGLAILSETEFLSCANDASIRRWQITGECLEVYYGHTNYIYSISVFPNCRDFVTTAEDRSLRIWKHGECAQTIRLPAQSIWCCCVLDNGDIVVGASDGIIRVFTESEDRTASAEEIKAFEKELSHATIDSKTGDLGDINAEQLPGREHLNEPGTREGQTRLIRDGEKVEAYQWSVSEGRWIKIGDVVGS | not soluble
15 | MGHHHHHHSHVLLFVYGEPVTRPHSGPAVYFWRHRKQADLDLARGDFAQAAQQLWLALRALGRPLPTSHLDLACSLLWNLIRHLLQRLWVGRWLAGRAGGLQQDCALRVDASASARDAALVYHKLHQLHTMGKHTGGHLTATNLALSALNLAECAGDAVSVATLAEIYVAAALRVKTSLPRALHFLTRFFLSSARQACLAQSGSVPPAMQWLCHPVGHRFFVDGDWSVLSTPWESLYSLAGNPVDPLAQVTQLFREHLLERALNCVTQPNPSPGSADGDKEFSDALGYLQLLNSCSDAAGAPAYSFSISSSMATTTGVDPVAKWWASLTAVVIHWLRRDEEAAERLCPLVEHLPRVLQESERPLPRAALHSFKAARALLGCAKAESGPASLTICEKASGYLQDSLATTPASSSIDKAVQLFLCDLLLVVRTSLWRQQQPPAP | not soluble
16 | MGHSQSYDLRNPEGGEKTPVRGVRRVSREHQTDAQFSTETAEPFDFREDELRDRIRREQLRKREVELETLRIRQHESREPIIDAYRQNQPAPQGNLYNEFNHYDSMKHASPSDPATYFALKPMTEVNEGRQFSIPTSSTRRYDQVPIDPSPELQRREVPSKQSPPNYPKRSSVFGGRVSPLPRQSEVDPHPMPRYIPPMSPSNPIDDVPPTHVSELHAEKRMIVGIDDELQPEKNNVTYVTVATAAIDNELLHRHPEVGRHPVYVLPAQTSYGASAKRRSSDDEAKNVLPPQNCTVEHCTHVAVNDGSPVVIRKRASQDSIRDKENRLTIPINEDDTENVGEGTNYQNVSKKCFEERLHYDSYMPTLSLRQRPVVSFYDKLH | not soluble
17 | MGIGSKILENNIQKSISLGFYHSHSELRKSFYEFFKSKNHEILRSSSVIPDENDGTLLFTNAGMNQFKPLILSSTESRRVANIQKCIRAGGKHNDLDDVGKDLHHQTFFEMMGNWSFNDAFSKEEACRYAWEYLVEILGINADRLYVSYFGGIEKLGLPEDRECREIWKRIGVSSNRILPFVAENFWEMGAAGPCGPCTEIHYDRIGGRDASRLVNIDDSVVEIWNIVFMSSVRDSCGQIRHLGKNHIDTGMGFERLLSVVQNKTSNFDTDVFTPILEKTSELAKKQYTGSLDSRQDATFRLVADHIRAATVAISDGAVPDGTGCGFIVRKMMRRAFLQGISKLGIERYAMSELVPVVASTMKEVYPEIHDTSTHIRKIFNDEEAQFWKTVDKAKKMFDSVAAESKSPIISGRKAFNLFETHGLPLAVTVELARNIGREVDETEFERCRLEAQKVSQKASQFKLPISADDFPSHSDKEKYSYVFRNGKYEFPQVKTRILQVYKDQQKAESLEANDRGFLVLEECQFYGEQGGQTSDTGHLLIDGREVFEVENAKKIAGGAVTVLFGRALLPIRRDLRVEQKLDETRREGVMRAHSATHLLNWALQKLGVGSGQKGSSVDCDRFRFDYSTGDEDLSKEQRTELLIKCEMKMREFIQNGGFTEIIETSLEEAKKIENLQSDVKEDRIGGASVRVVALGSGADVPVECCSGTHIHDVRVIDDVAIMSDKSMGQRLRRIIVLTGKEAAACRNYTKSIYEDLRSTDPKERSKTGKNIDWKRVPIADQARISILLKQKK | not soluble
18 | MGILKSLFTLGKSFISQAEESIEETQGVRMLEQHIRDAKAELDKAGKSRVDLLARVKLSHDKLKDLRERKASLEARALEALSKNVNPSLINEVAEEIARLENLITAEEQVLSNLEVSRDGVEKAVTATAQRIAQFEQQMEVVKATEAMQRAQQAVTTSTVGASSSVSTAAESLKRLQTRQAERQARLDAAAQLEKVADGRDLDEKLAEAGIGGSNKSSAQDVLARLQRQQGELEHHHHHH | not soluble
19 | MGISPDAASKLYTVKFQPDPIDKKGWSVIDFNNCCTQDGGWYLNMGWGVESLIDNNPGTQWLCRWDVKEPLPYYFVFDMGKEYTLFRFGFANPVAPAAHVWAGTSKAGYVEASIDNENWVKLKDWTSPKIGEPNVNMDVPATQARYIRFVITDTYPTYDGLRVSLGEVYAWGLEHHHHHH | soluble
20 | MGKGAMNRRDFLKVGGMSTLALTLGSTGLFSLEGQAKNSSNPTSGFGGFGPLVKDPNGILDLPKGFKYKILSRTGDRMTNGDLVPSMHDGMAAFQGPRNTTILVRNHENGTNADYPVNGKNPWSKGAAGGTTALVVGPNREVIREYVTNSGNIRNCAGGPSTWGTWLTCEETRDMGHGFVFEVNPHEPENEMSKTPIRDMGYFSHEACNVDPSTGIWYLTEDNSPSFFYRFTPHDRSQTLGSLQKGGILEAAAIDELPHNQASNFTSGQKIGIVWKKVNPERAKEDARDLGCIRFSRLEGSWFAGGAFWFDDTNAGEKNLGRIYRYFPATNTLELFYESSDHNDLEMPDNITITPWGDLWIAEDGNIGRDRMIGLTPEGNVYTFAENRLNNSEFAGPAFSPDGKTFYLNMQTPGITFAIWGPFARRNAARQVAMSHAAPPPGYGPQVSDKLADYAERHGMSPLAAAALERHGFIVLEHHHHHH | not soluble
21 | MGKKKSDTASGGAIPEGDNEKGKKIFKQRCEQCHVVNSLQTKTGPTLNGVIGRQSGQVAGFDYSAANKNKGVVWDRQTLFDYLADPKKYIPGTKMVFAGLKKADERADLIKFIEVEAAKKPSA | not soluble
22 | MGKLEDICDQYLSRKKEQDKVIEAVERCLKKGYDYEKLKDRVQEAISDPQKARKVISAVCDHYPQLRKRTRTDRDGEDRDRKRDRTDDRRKPDASVPAAVAEPQKPAEQSIEERLRAKEMMYKAQQEIEETKRKMAIAAGTLQPKAALAQAKTQMVAPGGKSLSLGRDEATMLMTHSMDKKSRMEELKARLARTTVMAKIDAMVGNSGAGVMAPLPEAVQQAEKKVQQQITKESKEPEKLIEYLDPRIQARTADRRRRGFNFHEKGEFEKLANKQRAMAKLERLQNEVSSAAQSTGISSAVKLAMVTPTGTAKMENGVPDIEWWDMLVLDKVNYDEIPAENDMERYSQTVSELVEHPISMRAPTEPLTQQYLKVYLTTKEKKKIRRQNRKEVLKEKTEKIRLGLEKAPEPKVKISNLMRVLGNEAIQDPTKMEAQVRKQMAERLKKHETLNAERKLTEDQKRAKKTKKLSEDTSTAVNVSVYRVKSLAHPSKKFKVETNAKQLQMSGAIMMHKAQNVIVVEGGPKQQKFYKNLMINRIKWSDEIIGQKKDAEKDAPGERNLCEMIWEGQVKRRNFRDFTVHTATLEKQAREFFEKHGVAQYWDLCYSTTVLLEGQDILPTA | not soluble
